These results are taken from PMC6684372.

Changes are numbered by the printed parent chain.

The Kd is the free concentration of one partner at which half of the binding sites on the other are occupied at equilibrium, for simple one-to-one binding.

Assay in all cases: EMSA
Data set [1] deals with UV-DDB (DDB1-DDB2 heterodimer) (Homo sapiens) (UniProt Q16531+Q92466). To be noted: N at position 20 of strand 1 = tetrahydrofuran (abasic analog), opposite T.
The target of data set [2] is UV-DDB (DDB1-DDB2 heterodimer) (Homo sapiens, UniProt Q16531;Q92466 1-1140;1-427).
Chain of UV-DDB (DDB1-DDB2 heterodimer) (Q16531 whole entry, chain 1 of 2): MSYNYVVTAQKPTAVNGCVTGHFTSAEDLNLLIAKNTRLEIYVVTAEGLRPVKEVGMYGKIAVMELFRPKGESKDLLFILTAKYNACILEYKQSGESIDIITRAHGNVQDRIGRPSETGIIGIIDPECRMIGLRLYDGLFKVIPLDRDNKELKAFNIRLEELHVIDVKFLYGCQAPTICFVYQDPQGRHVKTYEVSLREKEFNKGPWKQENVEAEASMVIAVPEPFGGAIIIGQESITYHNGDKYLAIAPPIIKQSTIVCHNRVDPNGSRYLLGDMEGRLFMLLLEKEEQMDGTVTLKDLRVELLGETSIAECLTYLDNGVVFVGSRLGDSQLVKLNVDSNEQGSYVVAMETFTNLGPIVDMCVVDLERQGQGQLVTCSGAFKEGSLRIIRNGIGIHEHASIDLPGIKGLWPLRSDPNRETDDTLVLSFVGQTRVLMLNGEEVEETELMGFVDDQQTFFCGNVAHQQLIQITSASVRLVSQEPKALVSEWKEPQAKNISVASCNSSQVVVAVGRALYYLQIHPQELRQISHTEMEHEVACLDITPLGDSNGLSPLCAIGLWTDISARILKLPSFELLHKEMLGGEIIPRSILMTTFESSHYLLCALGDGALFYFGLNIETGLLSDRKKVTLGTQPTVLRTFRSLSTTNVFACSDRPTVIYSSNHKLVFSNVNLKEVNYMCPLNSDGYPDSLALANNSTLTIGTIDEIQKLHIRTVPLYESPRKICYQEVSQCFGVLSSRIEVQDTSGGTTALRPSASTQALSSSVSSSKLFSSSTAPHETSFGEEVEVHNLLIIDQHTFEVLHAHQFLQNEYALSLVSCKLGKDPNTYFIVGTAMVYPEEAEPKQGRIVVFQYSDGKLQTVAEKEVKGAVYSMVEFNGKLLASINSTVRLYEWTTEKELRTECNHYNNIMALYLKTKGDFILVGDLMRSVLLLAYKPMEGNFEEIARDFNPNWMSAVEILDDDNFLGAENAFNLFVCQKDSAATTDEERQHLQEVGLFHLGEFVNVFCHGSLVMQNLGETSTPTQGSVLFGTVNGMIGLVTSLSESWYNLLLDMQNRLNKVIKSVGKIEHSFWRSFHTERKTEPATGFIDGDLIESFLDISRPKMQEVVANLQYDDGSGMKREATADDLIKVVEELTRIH
Chain of UV-DDB (DDB1-DDB2 heterodimer) (Q92466 whole entry, chain 2 of 2): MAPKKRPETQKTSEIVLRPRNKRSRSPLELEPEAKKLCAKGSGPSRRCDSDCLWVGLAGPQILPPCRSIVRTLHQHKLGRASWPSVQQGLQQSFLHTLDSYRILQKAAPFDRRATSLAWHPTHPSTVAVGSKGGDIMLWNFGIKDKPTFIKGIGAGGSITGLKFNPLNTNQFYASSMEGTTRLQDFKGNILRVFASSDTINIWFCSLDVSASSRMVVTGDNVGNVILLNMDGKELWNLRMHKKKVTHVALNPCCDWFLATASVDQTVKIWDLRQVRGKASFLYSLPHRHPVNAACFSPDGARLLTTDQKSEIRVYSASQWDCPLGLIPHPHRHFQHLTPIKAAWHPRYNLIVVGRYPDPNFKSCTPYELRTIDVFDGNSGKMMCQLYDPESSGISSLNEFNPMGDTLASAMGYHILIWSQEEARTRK
Another data set has as its target OGG1 (Homo sapiens, UniProt O15527 1-345).

Chain of OGG1 (O15527 whole entry): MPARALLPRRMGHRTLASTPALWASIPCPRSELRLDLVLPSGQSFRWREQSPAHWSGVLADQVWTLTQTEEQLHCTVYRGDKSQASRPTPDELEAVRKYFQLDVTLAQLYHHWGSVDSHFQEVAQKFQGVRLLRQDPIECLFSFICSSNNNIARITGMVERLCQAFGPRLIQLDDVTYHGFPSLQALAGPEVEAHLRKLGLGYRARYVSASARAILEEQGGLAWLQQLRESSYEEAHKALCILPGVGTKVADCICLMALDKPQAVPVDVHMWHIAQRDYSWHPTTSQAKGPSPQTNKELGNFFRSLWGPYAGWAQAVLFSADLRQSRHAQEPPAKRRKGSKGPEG
Chain of UV-DDB (DDB1-DDB2 heterodimer) (Homo sapiens) (Q16531 whole entry, chain 1 of 2): as the sequence (Q16531 whole entry, chain 1 of 2) above
Chain of UV-DDB (DDB1-DDB2 heterodimer) (Homo sapiens) (Q92466 whole entry, chain 2 of 2): as the sequence (Q92466 whole entry, chain 2 of 2) above

Turning to “CCGAGTCATTCCTGCAGCGNGTCCATGGGAGTCAAAT / ATTTGACTCCCATGGACTCGCTGCAGGAATGACTCGG [THF37]”, the Kd in data set [1] was determined as 3.9 nM. In other words, the single-digit nanomolar range.

B1: 8-oxoG37(G:C) (dsDNA)
DNA 1: CCGAGTCATTCCTGCAGCGAGTCCATGGGAGTCAAAT
DNA 2: ATTTGACTCCCATGGACTCGCTGCAGGAATGACTCGG
modifications: 8-oxoG at position 21 of strand 1 (printed as Z), opposite C
As for B1, binding in data set [2] was characterised by a dissociation constant (Kd) of 160 ± 12.4 nM. For the same molecule, in the data set with OGG1, the binding signal is ~3 fold lower affinity than THF37.

B2: 8-oxoG37(G:A) (dsDNA)
DNA 1: B1 DNA 1
DNA 2: B1 DNA 2 with C17A
modifications: 8-oxoG at position 21 of strand 1 (printed as Z), opposite A
The molecule B2 displayed a Kd in data set [2] of 164 ± 14.8 nM.

B3: UD37 (dsDNA)
DNA 1: B1 DNA 1
DNA 2: B1 DNA 2
Turning to B3, binding in data set [2] was put at a Kd of 1110 ± 95.5 nM.
